Data as given in paper PMC9452301 (Nature, 2022).

Target: protein phosphatase 1 catalytic subunit, γ-isoform (PPP1CCγ) (human, UniProt P36873 1-323)
Test: cell-based or functional assay

Sequence of protein phosphatase 1 catalytic subunit, γ-isoform (PPP1CCγ) (P36873 whole entry, canonical isoform): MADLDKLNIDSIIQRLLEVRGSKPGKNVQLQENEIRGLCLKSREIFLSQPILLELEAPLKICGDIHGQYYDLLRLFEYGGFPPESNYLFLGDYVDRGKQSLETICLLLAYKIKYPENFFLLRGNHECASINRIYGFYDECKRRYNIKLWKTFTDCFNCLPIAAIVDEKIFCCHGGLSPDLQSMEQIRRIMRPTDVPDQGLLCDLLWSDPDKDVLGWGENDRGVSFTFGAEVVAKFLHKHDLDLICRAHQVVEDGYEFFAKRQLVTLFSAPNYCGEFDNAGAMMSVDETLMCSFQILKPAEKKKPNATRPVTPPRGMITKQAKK

Kd^app of SHOC2 from peptide dephosphorylation (25 nM PP1C, 1 µM MRAS(GCP)): ~40 fold weaker than full-length SHOC2
B1: N-terminally truncated SHOC2 (SHOC2-ΔN; residues 91–582) (domain or fragment)
chain: IKELNKCREENSMRLDLSKRSIHILPSSIKELTQLTELYLYSNKLQSLPAEVGCLVNLMTLALSENSLTSLPDSLDNLKKLRMLDLRHNKLREIPSVVYRLDSLTTLYLRFNRITTVEKDIKNLSKLSMLSIRENKIKQLPAEIGELCNLITLDVAHNQLEHLPKEIGNCTQITNLDLQHNELLDLPDTIGNLSSLSRLGLRYNRLSAIPRSLAKCSALEELNLENNNISTLPESLLSSLVKLNSLTLARNCFQLYPVGGPSQFSTIYSLNMEHNRINKIPFGIFSRAKVLSKLNMKDNQLTSLPLDFGTWTSMVELNLATNQLTKIPEDVSGLVSLEVLILSNNLLKKLPHGLGNLRKLRELDLEENKLESLPNEIAYLKDLQKLVLTNNQLTTLPRGIGHLTNLTHLGLGENLLTHLPEEIGTLENLEELYLNDNPNLHSLPFELALCSKLSIMSIENCPLSHLPPQIVAGGPSFIIQFLKMQGPYRAMV
